Among the data in publication PMC6947844 (Antibody therapeutics, 2019) are Kd values, retold here.

For this assay, the target named is Human EGFRvIII extracellular domain (ECD) C-terminal His-tagged protein (Homo sapiens, deletion of amino acids 6 to 273). Nature of the assay: BLI.

B1: monoclonal antibody 40H3 (antibody, V domains shown)
VH: QVQLKQSGPGLVQPSQSLSITCTVSGFSLTNYGIHWLRQSPGKGLEWLGMMWRGGGTDYNAAFISRLTITKDTSKSQVFFRMNNLQTNDTAIYYCARKGVGMGLGYWGQGTSVTVSS
VL: DIQMTQSPASQSASLGESVTITCLASQTIGTWVAWYQQKPGRSPQLLIYGATNLADGVPSRFSGSGSGTKFSFKISSLQAEDFVSYYCQQLYSNPYTFGGGTKLEIK
Regarding B1, the Kd is about 270 pM.

What is called Kd is the equilibrium constant for the complex coming apart. Read a high Kd as lower affinity.
